In a protein production outcome set (Wang et al. 2014):

Assay: label from the status in PepcDB records
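Also: failed if final PepcDB status was selected cloned or expressed and not failed if soluble or beyond.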

Sequence	protein production
MWIQVRTIDGSKTCTIEDVSRKATIEELRERVWALFDVRPECQRLFYRGKQLENGYTLFDYDVGLNDIIQLLVRPD	not failed
GPSSSHTVGPMLAANAFLQLLEQKNLFDKTQRVKVELYGSLALTGKGHGTDKAILNGLENKAPETVDPASMIPRMHEILDSNLLNLAGKKEIPFHEATDFLFLQKELLPKHSNGMRFSAFDGNANLLIEQVYYSIGGGFITTEEDFDK	not failed
MKLSSEKLPKNPFSLSQYAAKQQKFFQWKKEKPDYYLHANLVDTALQFLKERIRRGDAMAYFLRGQLYFEEGWYEEALAQFEEIQEKDHQAIYQLGVMYYDGLGTIANAEKGVNYMRKILDSSCPQTMHLKFAAAYNLGRAYFEGKGVKRSDEEAERLWLLAADNGNPKASVKAQSILGLFYSMKEPKELEKAFFWHSEACGNGSLESQGALGLMYFYGQGIRQDTDAALHCLREAAERGNVYAQGTLVEYYYKMKFFTKCVSFSKRIADYDEVHDIPMIAHVTDCLPEFIIKGMAMAAFYHGRCLQLGLGIMKDEESAKHYYSKACRLNPTLADELHSLLIHQRI	failed
MVQQSEVRQMKHSVSTLNQEMTQLNQETVKITQQNRLNAKSSSGVYLLPGAKTPARLESQIGTLRMSLVNITPDADGTTLTLRIQGESNDPLPAFSGTVEYGQIQGTIDNFQEINVQNQLINAPASVLAPSDVDIPLQLKGISVDQLGFVRIHDIQPVMQLEHHHHHH	not failed
MSLLFLAMAPKPKPWVQTEGPEKKKGRQAGREEDPFRSTAEALKAIPAEKRIIRVDPTCPLSSNPGTQVYEDYNCTLNQTNIENNNNKFYIIQLLQDSNRFFTCWNRWGRVGEVGQSKINHFTRLEDAKKDFEKKFREKTKNNWAERDHFVSHPGKYTLIEVQAEDEAQEAVVKVDRGPVRTVTKRVQPCSLDPATQKLITNIFSKEMFKNTMALMDLDVKKMPLGKLSKQQIARGFEALEALEEALKGPTDGGQSLEELSSHFYTVIPHNFGHSQPPPINSPELLQAKKDMLLVLADIELAQALQAVSEQEKTVEEVPHPLDRDYQLLKCQLQLLDSGAPEYKVIQTYLEQTGSNHRCPTLQHIWKVNQEGEEDRFQAHSKLGNRKLLWHGTNMAVVAAILTSGLRIMPHSGGRVGKGIYFASENSKSAGYVIGMKCGAHHVGYMFLGEVALGREHHINTDNPSLKSPPPGFDSVIARGHTEPDPTQDTELELDGQQVVVPQGQPVPCPEFSSSTFSQSEYLIYQESQCRLRYLLEVHL	not failed
MFKVLQCLTIDHDYRYTAAAVVVCMLGSFVTMRLFSKARLATGLQKVNWLFLAGVNGGAAIWTTHFVAMLGYVAAGDVGYDPYLTGLSLLIAITTTTAGFGISAYGGRSVLVEAGGTILGLGIAAMHYTGMAAYNVQGMIFWDQAYVIASLVLGSVLGAIAVNRIARPLNRFCQYSAVAFLILAIASMHYTGMASMSFAFDPRIIIPENLLPPAIMGGGAIAVTLLLLALGLSTYVIDAQSTQQAVARYRHLSLHDPLTGIPNRAAFIEHLNRRTRHISMGAHTALLSIDLDRFKEINDVHGHAAGDAVLRAIADRASSVLKAGEFLARMGGDEFVAMTHSYYTRADGAEFAQRLIEQISKPVEWNGQTFSVGASVGISVRNTGSIDADTLMAQADVAMYRAKSATSDTICFYDKSMDEAARARNALAIAMRSGLANNEFELYYQQQNDTKSGSIVGFEALLRWKHPERGMVSPVEFIPIAEQTGFIVELGEWVLREACAQAARWKKSLAIAVNVAPQQLADNDFPDKVERILAETGLAPERLELEITEGSIIADHRHALVTIRKLKSLGVKIAMDDYGTGYSSLSTLQSFPFDKIKIDRAFIDGLSTNVQSEAIVRSTLILAHSLNIPVLAEGVETKAHIEFLRREGCLQVQGFFFGKPGPLTSIANLVDDTFLSAEDETEEASGRRYIKVVR	failed
MSHRSPLRRLYPISAGGTAMRRSFAIGLTVLFLGNGAVMLAAPYPWYLAVPGVVLTGPFNDHFVRDVGAAYLACGVATALGAWNLRRHAGAVVVAATFQGLHAMIHLVTPFCGAGAPWLLLARDFPGVFLPTAATIWLAIAAFQPSEGEQK	failed
MDHRASRTGLFILGLCFVLSLLGRGLGESFTVFLLPISGSFGWDRAEVVSIYSLTALCTGLASPLVGRLFDRSGPRVVYTLGMTLLGGALLIAAYAERLWQLQLTVGLCVGLGIAFTGNVPNSILLGRWFGARLPTAMAVVYSAIGAGVLVMLPIAQLLIDRYGWREAYLILGGAMLILLVPLSLMPWRRFAAGADAHAQRPAQDADEDGWTLGSAMRHHAFWALFATFFFTAIGMYSISAQVVAYLVDAGFTPLQAATAWGFSGVVLVVGMLGVSWLDGVIGRRPSILFSYAISITGLVLLWLLQWYPNLLLLGGFVICFGSMIGSRGPLITATAMSIFRGRRVGTIYGTISIGSGLGSAFGSWCGGLLHDLTQSYNPVLGFALVSVVLGMIPFLVVPALRERQ	failed
MAQFLEKATSALSEAKESVTSTAESVTASLTDAEKTVNQTARSTLTDAETTVAASVETVKTEAAAAPDKASGVSTQAKDAVDKAFSRGIEGAKSLLQTFEAKSSDISSKLVGGVTNLVSGASSSTVANRDLPVSTDNQPLLASGEKTPWWKNCCGVLDLFKKDT	failed
MRKCLLSVAMIVKDEEHNIRRALESIKDVVDEIVVVDTGSTDRTPEIVREYTDKLYFHEWKNDFSEARNFSLKFPTCEWVLILDADEEASEEFRQNIRSFLESLPEDVNTVYLPTVSYLDWDFKRTEIASTPRIFRNGTVYYKNIVHNQAVYKPKVVHAPFVIYHYGYIWTRKLKKNKYERTATLIREQLKTVKNPIEKIYYLIQLYKTEKTGGRKHEENRIAWETLQEIMKVGKIPPIGLEFLYIFGMELILNGFLEKGEELIDTAIRVFPENPDPYFAKLAIYERRKDWENLYQWGKKFLDVLNKALSQAEKYEFTITTIKEIGTAHLLMCHACIKLKKWNEAYEHLLKAIENNIDESKFTLTLQIVSEIDESENFQKVLKLVEKIAEHSENLFFDEIVEKIAEFEIEASEELLNKLPVSRKISKFILKRLVEKKDFLFEYLTGGDINSFVEKTGIPGLLFIFDLLKNRETEGRLIRILSKIEGDEKPNGIVQALIGDLYLKLGNFSEAISRYRKALELAPEIGNFIKPVIEDLKTRLDPDIEGVYEELYRYFSGYREFPFNILEFTKEDAEKLYLISDHPLAIYTSAVAVFPKSKEKARALLERIKDVSKLSFYYYRLAKTWEEENPSKAFELHIKAVEENENLGDIALGRYKYDGLYPNQTFPFMKKEDEIVWAGNITEKFSGLGVIHPVRAWKRKENLYYALPHPTDEALKLYKEREKEILKEPPFKVKEEHMIGVLLESDIRDLRIKGEASGLESILKDLEIELKEDSKNLLVVSGVEETLDLSKIAEDAERVLLFFFVPDLRDRNNSVWYYPAFRVLRTTHQMKKTLEDLRFSVVKVKALDKNLRFIEALRRL	failed
MSYNVAILMSTYNGMDYLREQIESIRSQTYKQWNLYIRDDGSSDNTIDLIKTFVHQDTRIHFINADKQVNRGVKRSFLNLLSSVKADFYMFCDQDDYWLPNKVKLTLDAMISDYHNKPRLVFTNMNLVDSNLKVLDKASLSAVNISYWTSKDQLMFDNIVTGCTVMINNQLKQYVFPISAKKIVMHDWYIAQLASQLGDIQYVTDPTILYRQHESNQVGVNKSLFGKVKKLARFNDFQTGVILQISQGRLTQKKSQVVFSKTTQAFLNWNFTCPLILKVLPIIQNNFKKHTWPGTIALNLALLRRKKS	failed
MIEDTLHAIAQQDYPAESYEVLLINDGSKDNTLEIAENLAKIYPCIKIVNVPKGMGGKGKSRTLNNGLPHAKGELIVVYDADSTPEPDCVRLLAQTLLADKKLVAVNGKVRTRNWQDSILTRFIAIEFIFFQWIFQGGRWQRFELSTLMGTNYVIWRDALETLGGFDEKSLVDDTEMSFRIFIGQKRIKWVPYAIGWQQDPPSLSVFVKQRSRWTQGNFYVTRKYLPVALRTPFPIGIEILNNIMCYILFVPALFWSHITLTLGLLDIAGISVPGPFTLLWGLSFCLYVAQMWFTLSLEKVKPELYFYSVLSYVSYSQIFLFIVFKAAFDMLKNKIQGNSLQWYKTERSKEKK	failed
MSVQNIVNINESNLQQTLEQSMTTPVLFYFWSERSQHCLQLTPVLESLAAQYHGQFILAKLDCDAEQMIAAQFGLRAIPTVYLFQNGQPVDGFQGPQPEEAIRALLDKVLPREEELKAQQAMQLMQEGNYIDALPLLKDAWQLSSQNSEIGLLLAEAQIALNRSEEAEAVLKTIPLQDQDTRYQGLVAQIELLKQAADTPEIQQLQQQVADNPQDAALATQLALQLHQVGRNEEALELLFSHLRKDLTAAEGQTRKTFQEILAALGTGDALASKYRRQLYALLY	not failed
MITDIPWNRGEWTNQPAAVVEQAGDLLVTAAESSDAWRVTSYGFIHDTEHALLAPLPQDSAMEVEFTAAFSQQFDQAGIFVRISAEHWIKAGVEFADGAAQVGAVVTNRFSDWSLAPVPDWNGERVRMRVSRSGDALTIRAASGSNELRLVRVVPLAPDLVTVAGPFTCAPTRAGLTVPFHSWRAKPADSQLH	failed
VAVINSAQDAPSEAPTEVGVKVLSSSEISVHWEHVLEKIVESYQIRYWAAHDKEEAANRVQVTSQEYSARLENLLPDTQYFIEVGACNSAGCGPPSDMIEAFTKKA	not failed
MIPFKDITLADRDTITAFTMKSDRRNCDLSFSNLCSWRFLYDTQFAVIDDFLVFKFWAGEQLAYMMPVGNGDLKAVLRKLIEDADKEKHNFCMLGVCSNMRADLEAILPERFIFTEDRAYADYIYLRSDLATLKGKKFQAKRNHINRFRNTYPDYEYTPITPDRIQECLDLEAEWCKVNNCDQQEGTGNERRALIYALHNFEALGLTGGILHVNGKIVAFTFGMPINHETFGVHVEKADTSIDGAYAMINYEFANRIPEQYIYINREEDLGIEGLRKAKLSYQPVTILEKYMACLKDHPMDMVRW	not failed
MTEASAPLIDVDPRLLEVLVCPVTRGPLEYDRAKGELISRAAKLAYPIRDGVPIMLPEEARELEGLEHHHHHH	not failed
MKKIVILIISVLLLGGIIGGVYYFKNANKIGADASYVKITKDPTKSNEISFNNNYTLPAYDENGKETEVTFSADKELRKGAYLKLYIKEDKGVTSFEEVPEKEVPAKAAEKLKLEHHHHHH	failed
QAPLRIECTDISHIQGTDVVASLVVFEDGLPRKSDYRRYRVKEAAGDGHSNDVASIAEITRRRFLRHNQDKLAVPEAEEFDGSTFSDEKVEEMSTDARRFAYPPQIFIVDGGAPQVAAAQEVFDELGIVDVVLIGLAKRLEEIWLPGDPDPVILPRNSQALFLLQQIRDEAHRFAITYHRQQRSKRMRVSELDSIKG	failed
MSTDTSGVGVREIDAGALPTRYARGWHCLGVAKDYLEGKPHGVEAFGTKLVVFADSHGDLKVLDGYCRHMGGDLSEGTVKGDEVACPFHDWRWGGDGRCKLVPYARRTPRMARTRSWTTDVRSGLLFVWHDHEGNPPDPAVRIPEIPEAASDEWTDWRWNRILIEGSNCRDIIDNVTDMAHFFYIHFGLPTYFKNVFEGHIASQYLHNVGRPDVDDLGTSYGEAHLDSEASYFGPSFMINWLHNRYGNYKSESILINCHYPVTQNSFVLQWGVIVEKPKGMSEEMTDKLSRVFTEGVSKGFLQDVEIWKHKTRIDNPLLVEEDGAVYQLRRWYEQFYVDVADIKPEMVERFEIEVDTKRANEFWNAEVEKNLKSREVSDDVPAEQH	not failed
MLQTLYTIILYLIQPLIWIRLWLRGRKAPAYRRRWGERYGFCAEKVKPDGIMLHSVSVGETLAAIPLVRALRHRYPNLPITVTTMTPTGSERVRSAFGDTVYHVYLPYDLPCALKRFFDQVRPKIVIIMETELWPNLIAELHKREIPLVIANARLSERSAAGYKKIGKLMRHILQRITLVAAQNQEDGNRFIALGLKRSSLKVTGSLKFDISVTPELAARAITLRRQWAPHRPVWIATSTHEGEEAIVLAAHRRLLATYPDLLLILVPRHPERFSTTQALAESMGFNYTLRSSGEQPSANTQVVIGDTMGELMLLYGIADLAFVGGSLVERGGHNPLEAAAHAIPVLMGPHTFNFKDICNKLDQADGLITVTDADSLGKEVGKLLADEDYRLYYGRHAVEVLHQNQGALQMLLTLLEPYLPQRTQLEHHHHHH	not failed
